Source: paper PMC4624963, “Enzymatic Characterization of Recombinant Food Vacuole Plasmepsin 4 from the Rodent Malaria Parasite Plasmodium berghei” (PLoS ONE, 2015)
Where no end group is shown, it is not given here. [ ]: non-standard residue; d: D form. Nle = CCCC[C@H](N)C(=O)O

Assays:
Settings in all cases: both partners purified
[1] = biological target: T1, plasmepsin 4 from Plasmodium falciparum (Plasmodium falciparum, UniProt Q8IM16 122-449); assay: enzyme inhibition kinetics (Ki of competitive inhibition); initial cleavage velocities of a chromogenic peptide substrate at varied inhibitor concentration; plasmepsins pre-incubated in 100 mM sodium formate pH 4.5, 37°C, 5 min to convert zymogen to mature enzyme
T1 construct: also called PfPM4; source: zymogen converted to mature enzyme at pH 4.5, 37°C, 5 min

[2] = biological target: T2, plasmepsin 2 from Plasmodium falciparum (Plasmodium falciparum, UniProt P46925 125-453); assay: as above
T2 construct: also called PfPM2; source: zymogen converted to mature enzyme at pH 4.5, 37°C, 5 min

[3] = biological target: T3, plasmepsin 1 from Plasmodium falciparum (Plasmodium falciparum, UniProt P39898 124-452); assay: enzyme inhibition kinetics (Ki of competitive inhibition); initial cleavage velocities of a chromogenic peptide substrate at varied inhibitor concentration; mature PfPM1 pre-incubated in 100 mM sodium citrate pH 5.5, 37°C, 3 min
T3 construct: also called PfPM1

[4] = biological target: T4, mature plasmepsin 4 of Plasmodium berghei (PbPM4), auto-matured from semi-proPbPM4 (Plasmodium berghei ANKA); assay: enzyme inhibition kinetics (Ki of competitive inhibition); initial cleavage velocities of a chromogenic peptide substrate at varied inhibitor concentration, spectrophotometric; proPbPM4 pre-incubated in 100 mM sodium citrate pH 5.0, 37°C, 5 min; tight-binding or non-tight-binding competitive fit
T4 construct: also called mature PbPM4; FV plasmepsin 4; source: converted to mature enzyme by 5 min pre-incubation in sodium citrate pH 5.0 at 37°C

B1: compound 1 (KPYEFΨRQF), peptidomimetic inhibitor designed for PbPM4 (peptide)
peptide: KPYEFRQF
modifications: not fully specified (residue 5); printed as KPYEFΨRQF; also: Ψ pseudo-peptide bond between F5 and R6
notes: source: synthetic peptide
Ki [1]: 190 ± 19 nM | Ki [2]: 35 µM | Ki [3]: > 100 µM

KP[Nle]S[Nle]LQI (also: reduced amide Ψ[CH2-NH] between Nle5 and Leu6) [compound 3 (KPnLSnLΨLQI), peptidomimetic inhibitor designed for PfPM2]
Ki [4]: 375 ± 54 nM
